No end group written: not given here.
Key:
Test in all cases: pull-down; 1 nmol biotinylated BRC5 peptide on Dynabeads M-280 Streptavidin, 100 pmol purified HMG20b fragment; 50mM Tris-HCl pH 7.4, 150mM NaCl, 1% NP-40, 5mM EDTA, 10mM NaF, 0.1% BSA; 30 minutes at room temperature; Coomassie staining
Details in all cases: both partners purified
[1] = molecular target: T1, HMG20b fragment aa113-317 with C-terminal 6xHis tag (human, UniProt Q9P0W2 113-317)
T1 construct: cloned in pET21a; source: E. coli BL21 (DE3), purified (Ni-NTA agarose)
T1 sequence (looked up): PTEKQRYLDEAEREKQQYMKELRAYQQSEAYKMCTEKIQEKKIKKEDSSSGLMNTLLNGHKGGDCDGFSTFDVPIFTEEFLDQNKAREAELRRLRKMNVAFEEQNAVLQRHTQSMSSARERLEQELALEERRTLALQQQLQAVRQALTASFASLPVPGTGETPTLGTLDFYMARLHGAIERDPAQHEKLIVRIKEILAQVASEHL

[2] = molecular target: T2, full-length HMG20b with C-terminal 6xHis tag (human, UniProt Q9P0W2 1-317)
T2 construct: cloned in pET21a; also called His-HMG20b; source: E. coli BL21 (DE3), purified (Ni-NTA agarose)
T2 sequence (looked up): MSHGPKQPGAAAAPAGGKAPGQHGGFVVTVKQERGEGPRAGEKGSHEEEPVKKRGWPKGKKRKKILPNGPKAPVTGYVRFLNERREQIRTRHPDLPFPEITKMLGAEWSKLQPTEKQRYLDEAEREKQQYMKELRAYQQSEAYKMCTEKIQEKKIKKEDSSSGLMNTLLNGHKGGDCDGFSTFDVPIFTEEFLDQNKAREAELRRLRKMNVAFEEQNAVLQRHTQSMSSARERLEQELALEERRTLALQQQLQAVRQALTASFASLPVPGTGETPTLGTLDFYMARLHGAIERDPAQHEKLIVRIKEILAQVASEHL

[3] = molecular target: T3, HMG20b fragment aa173-276 with C-terminal 6xHis tag (human, UniProt Q9P0W2 173-276)
T3 construct: cloned in pET21a; also called C-terminal Δ1; source: E. coli BL21 (DE3), purified (Ni-NTA agarose)
T3 sequence (looked up): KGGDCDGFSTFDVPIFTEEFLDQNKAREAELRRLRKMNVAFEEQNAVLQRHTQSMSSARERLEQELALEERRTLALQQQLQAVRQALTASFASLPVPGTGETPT

[4] = molecular target: T4, HMG20b fragment aa173-317 with C-terminal 6xHis tag (human, UniProt Q9P0W2 173-317)
T4 construct: cloned in pET21a; also called C-terminal fragment; source: E. coli BL21 (DE3), purified (Ni-NTA agarose)
T4 sequence (looked up): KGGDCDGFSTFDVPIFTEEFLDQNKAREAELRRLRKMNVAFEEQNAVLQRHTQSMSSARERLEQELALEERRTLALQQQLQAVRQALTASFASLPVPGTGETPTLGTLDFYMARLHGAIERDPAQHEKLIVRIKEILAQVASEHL

Measured: binding result

B1: Biotinylated BRC5 peptide (BRCA2 amino acid residues 1661-1695) (peptide, UniProt P51587 1661-1695, looked up)
peptide: YSVIENSALAFYTSCSRKTSVSQTSLLEAKKWLRE
modifications: also: biotinylated (position not given here)
notes: BRCA2, human, BRC5 repeat motif, residues 1661-1695; also called Biotin-BRC5 peptide; BRC5 repeat; source: synthetic peptide (Cambridge Research Biochemicals)
binds: all assays above
